In patent US20040033600A1:

How the values were obtained:
Experiment in all cases: cell-based or functional assay
[1] = biological target: VP16CfUSPDEF (VP16 activation domain fused to the D, E and F domains of Choristoneura fumiferana USP) (Choristoneura fumiferana)
[2] = biological target: VP16MmRXRDEF (VP16 activation domain fused to the DEF domains of mouse RXR) (Mus musculus)
[3] = biological target: VP16CfEcRCDEF (VP16 activation domain fused to CfEcRCDEF) (Choristoneura fumiferana)
[4] = biological target: Full length MmRXR (mouse Mus musculus RXRalpha) (Mus musculus) (UniProt P28700)
[5] = biological target: VP16DmEcRCDEF (VP16 activation domain fused to DmEcRCDEF) (Drosophila melanogaster)

Chain of Full length MmRXR (mouse Mus musculus RXRalpha) (Mus musculus) (P28700 whole entry, the tested form may be a part): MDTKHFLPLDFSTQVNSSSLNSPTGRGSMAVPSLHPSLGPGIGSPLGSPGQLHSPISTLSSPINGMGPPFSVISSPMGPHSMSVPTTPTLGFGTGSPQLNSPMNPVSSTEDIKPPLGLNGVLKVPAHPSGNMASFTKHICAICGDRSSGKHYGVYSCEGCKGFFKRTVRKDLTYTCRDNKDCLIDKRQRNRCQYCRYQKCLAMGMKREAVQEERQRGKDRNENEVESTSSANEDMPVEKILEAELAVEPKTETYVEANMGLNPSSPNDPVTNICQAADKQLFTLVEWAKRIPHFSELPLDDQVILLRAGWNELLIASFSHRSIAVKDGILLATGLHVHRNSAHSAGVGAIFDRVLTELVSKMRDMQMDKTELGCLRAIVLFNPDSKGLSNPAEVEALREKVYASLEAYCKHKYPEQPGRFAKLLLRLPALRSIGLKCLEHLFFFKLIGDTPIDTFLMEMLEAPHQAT

“GAL4CfEcRDEF (GAL4 DNA binding domain fused to the D, E and F domains of Choristoneura fumiferana EcR)” gave a Mean Fold Activation Through N-(2-ethyl-3-methoxybenzoyl)-N'-(3,5-dimethylbenzoyl)-N'-t-butylhydrazine; pGAL4RELuc reporter, 3T3 cells (switch 1.2) [1] of 2 fold, a Mean Fold Activation Through N-(2-ethyl-3-methoxybenzoyl)-N'-(3,5-dimethylbenzoyl)-N'-t-butylhydrazine; pGAL4RELuc reporter, 293 cells (switch 1.2) [1] of 2 fold and a Mean Fold Activation with 50 µM N-(2-ethyl-3-methoxybenzoyl)-N'-(3,5-dimethylbenzoyl)-N'-t-butylhydrazine; pGAL4RELuc reporter, CHO cells (switch 1.2) [1] of 2 fold. The Mean Fold Activation Through N-(2-ethyl-3-methoxybenzoyl)-N'-(3,5-dimethylbenzoyl)-N'-t-butylhydrazine; pGAL4RELuc reporter, 3T3 cells (switch 1.1) [2] was 1120 fold, the Mean Fold Activation Through N-(2-ethyl-3-methoxybenzoyl)-N'-(3,5-dimethylbenzoyl)-N'-t-butylhydrazine; pGAL4RELuc reporter, 293 cells (switch 1.1) [2] was 125 fold and the Mean Fold Activation with 50 µM N-(2-ethyl-3-methoxybenzoyl)-N'-(3,5-dimethylbenzoyl)-N'-t-butylhydrazine; pGAL4RELuc reporter, CHO cells (switch 1.1) [2] was 267 fold. For the same substance, the Mean Fold Induction at 1.0 µM Concentration of Muristerone A; reporter gene, 3T3 cells (switch 1.1) [2] was 1 fold, the Mean Fold Induction at 1.0 µM Concentration of N'-(3,4-(1,2-ethylenedioxy)-2-methylbenzoyl)-N'-(3,5-dimethylbenzoyl)-N'-tert-butylhydrazine; reporter gene, 3T3 cells (switch 1.1) [2] was 601 fold and the Mean Fold Induction at 1.0 µM Concentration of N-(2-ethyl-3-methoxybenzoyl)-N'-(3,5-dimethylbenzoyl)-N'-tert-butylhydrazine; reporter gene, 3T3 cells (switch 1.1) [2] was 116 fold. For the same substance, the Mean Fold Induction at 1.0 µM Concentration of Ponasterone A; reporter gene, 3T3 cells (switch 1.1) [2] was 1 fold.
“GAL4CfUSPDEF (GAL4 DNA binding domain fused to CfUSPDEF)” showed a Mean Fold Activation Through N-(2-ethyl-3-methoxybenzoyl)-N'-(3,5-dimethylbenzoyl)-N'-t-butylhydrazine; pGAL4RELuc reporter, 3T3 cells (switch 1.5) [3] of 3 fold, a Mean Fold Activation Through N-(2-ethyl-3-methoxybenzoyl)-N'-(3,5-dimethylbenzoyl)-N'-t-butylhydrazine; pGAL4RELuc reporter, 293 cells (switch 1.5) [3] of 2 fold and a Mean Fold Activation with 50 µM N-(2-ethyl-3-methoxybenzoyl)-N'-(3,5-dimethylbenzoyl)-N'-t-butylhydrazine; pGAL4RELuc reporter, CHO cells (switch 1.5) [3] of 2 fold.
With “CfVgRXR EcR component: truncated CfEcR comprising a partial A/B domain and the complete CDEF domains, fused to VP16AD” the Mean Fold Activation Through N-(2-ethyl-3-methoxybenzoyl)-N'-(3,5-dimethylbenzoyl)-N'-t-butylhydrazine; pIND(SP1)LacZ reporter, 3T3 cells (switch 1.9) [4] was 19 fold, the Mean Fold Activation Through N-(2-ethyl-3-methoxybenzoyl)-N'-(3,5-dimethylbenzoyl)-N'-t-butylhydrazine; pIND(SP1)LacZ reporter, 293 cells (switch 1.9) [4] was 12 fold and the Mean Fold Activation with 50 µM N-(2-ethyl-3-methoxybenzoyl)-N'-(3,5-dimethylbenzoyl)-N'-t-butylhydrazine; pIND(SP1)LacZ reporter, CHO cells (switch 1.9) [4] was 27 fold.
With “GAL4MmRXRDEF (GAL4 DNA binding domain fused to MmRXRDEF)” the Mean Fold Activation Through N-(2-ethyl-3-methoxybenzoyl)-N'-(3,5-dimethylbenzoyl)-N'-t-butylhydrazine; pGAL4RELuc reporter, 3T3 cells (switch 1.3) [3] was 47 fold, the Mean Fold Activation Through N-(2-ethyl-3-methoxybenzoyl)-N'-(3,5-dimethylbenzoyl)-N'-t-butylhydrazine; pGAL4RELuc reporter, 293 cells (switch 1.3) [3] was 17 fold and the Mean Fold Activation with 50 µM N-(2-ethyl-3-methoxybenzoyl)-N'-(3,5-dimethylbenzoyl)-N'-t-butylhydrazine; pGAL4RELuc reporter, CHO cells (switch 1.3) [3] was 85 fold. The Mean Fold Induction at 1.0 µM Concentration of Muristerone A; reporter gene, 3T3 cells (switch 1.3) [3] was 1 fold, the Mean Fold Induction at 1.0 µM Concentration of N'-(3,4-(1,2-ethylenedioxy)-2-methylbenzoyl)-N'-(3,5-dimethylbenzoyl)-N'-tert-butylhydrazine; reporter gene, 3T3 cells (switch 1.3) [3] was 54 fold and the Mean Fold Induction at 1.0 µM Concentration of N-(2-ethyl-3-methoxybenzoyl)-N'-(3,5-dimethylbenzoyl)-N'-tert-butylhydrazine; reporter gene, 3T3 cells (switch 1.3) [3] was 71 fold. For the same substance, the Mean Fold Induction at 1.0 µM Concentration of Ponasterone A; reporter gene, 3T3 cells (switch 1.3) [3] was 1 fold, the Mean Fold Activation Through N-(2-ethyl-3-methoxybenzoyl)-N'-(3,5-dimethylbenzoyl)-N'-t-butylhydrazine; pGAL4RELuc reporter, 3T3 cells (switch 1.4) [5] was 269 fold and the Mean Fold Activation Through N-(2-ethyl-3-methoxybenzoyl)-N'-(3,5-dimethylbenzoyl)-N'-t-butylhydrazine; pGAL4RELuc reporter, 293 cells (switch 1.4) [5] was 3 fold. For the same substance, the Mean Fold Activation with 50 µM N-(2-ethyl-3-methoxybenzoyl)-N'-(3,5-dimethylbenzoyl)-N'-t-butylhydrazine; pGAL4RELuc reporter, CHO cells (switch 1.4) [5] was 312 fold.
Substance “Drosophila melanogaster EcR with a modified DNABD fused to VP16AD (EcR component of the DmVgRXR system, Invitrogen)” has a Mean Fold Activation Through N-(2-ethyl-3-methoxybenzoyl)-N'-(3,5-dimethylbenzoyl)-N'-t-butylhydrazine; pIND(SP1)LacZ reporter, 3T3 cells (switch 1.8) [4] of 21 fold, a Mean Fold Activation Through N-(2-ethyl-3-methoxybenzoyl)-N'-(3,5-dimethylbenzoyl)-N'-t-butylhydrazine; pIND(SP1)LacZ reporter, 293 cells (switch 1.8) [4] of 21 fold and a Mean Fold Activation with 50 µM N-(2-ethyl-3-methoxybenzoyl)-N'-(3,5-dimethylbenzoyl)-N'-t-butylhydrazine; pIND(SP1)LacZ reporter, CHO cells (switch 1.8) [4] of 14 fold.
